In publication PMC3205435 (Journal of molecular recognition : JMR, 2011):
Where two headings read alike, the source gives them in different places.

B1: DB domain of ERα pre-treated with EDTA to strip divalent zinc ions (metal-free DB domain) (domain or fragment, human, UniProt P03372 176-250, looked up)
chain: MESAKETRYCAVCNDYASGYHYGVWSCEGCKAFFKRSIQGHNDYMCPATNQCTIDKNRRKSCQACRLRKCYEVGM
B2: DB domain of ERα reconstituted with divalent ions of zinc (domain or fragment, human, UniProt P03372 176-250, looked up)
chain: MESAKETRYCAVCNDYASGYHYGVWSCEGCKAFFKRSIQGHNDYMCPATNQCTIDKNRRKSCQACRLRKCYEVGM
B3: DB domain of ERα reconstituted with divalent ions of cobalt (domain or fragment, human, UniProt P03372 176-250, looked up)
chain: MESAKETRYCAVCNDYASGYHYGVWSCEGCKAFFKRSIQGHNDYMCPATNQCTIDKNRRKSCQACRLRKCYEVGM
B4: DB domain of ERα reconstituted with divalent ions of mercury (domain or fragment, human, UniProt P03372 176-250, looked up)
chain: MESAKETRYCAVCNDYASGYHYGVWSCEGCKAFFKRSIQGHNDYMCPATNQCTIDKNRRKSCQACRLRKCYEVGM
B5: DB domain of ERα reconstituted with divalent ions of cadmium (domain or fragment, human, UniProt P03372 176-250, looked up)
chain: MESAKETRYCAVCNDYASGYHYGVWSCEGCKAFFKRSIQGHNDYMCPATNQCTIDKNRRKSCQACRLRKCYEVGM
B6: ERE duplex (dsDNA)
DNA 1: CCCAGGTCACAGTGACCTGCG
DNA 2: CGCAGGTCACTGTGACCTGGG

Columns and labels:
SEC-MALS = biological target: the molecule itself; test: SEC-MALS
[1] = biological target: T1, ERα DB domain (DNA-binding domain) (human, UniProt P03372 176-250); test: ITC
[2] = biological target: T1, ERα DB domain (DNA-binding domain); test: ITC; remark: listed apart in the source

Binder | stoichiometry N (SEC-MALS) | Kd [1] | Kd [2]
B1 | 2 |  | 
B2 | 2 |  | 
B3 | 2 |  | 
B4 | 2 |  | 
B5 | 2 |  | 
B6 |  | 0.081 ± 0.002 µM | 0.068 ± 0.008 µM
